Measurements taken from patent US20250034268A1.

What was measured:
[1] = biological target: human BCMA expressed on the cell surface (human) (UniProt Q02223); assay: flow cytometry on MM.1s cells
[2] = biological target: human BCMA expressed on the cell surface (human) (UniProt Q02223); assay: flow cytometry on H929 cells
[3] = biological target: human BCMA expressed on the cell surface (human) (UniProt Q02223); assay: flow cytometry on U266 cells
[4] = biological target: human BCMA expressed on the cell surface (human) (UniProt Q02223); assay: flow cytometry on RPMI8226 cells
[5] = biological target: mouse BCMA expressed on CHO GS cells (mouse) (UniProt O88472); assay: flow cytometry on mBCMA-CHO-GS cells
[6] = biological target: human BCMA expressed on the cell surface (human) (UniProt Q02223); assay: flow cytometry on AMO1 cells
[7] = biological target: cynomolgus monkey BCMA expressed on CHO GS cells (cynomolgus monkey); assay: flow cytometry on cynoBCMA-CHO-GS cells
[8] = biological target: human BCMA expressed on the cell surface (human) (UniProt Q02223); assay: flow cytometry on hBCMA-CHO-GS cells
[9] = biological target: human BCMA expressed on the cell surface (human) (UniProt Q02223); assay: flow cytometry on L363 cells

Chain of human BCMA expressed on the cell surface (human) (Q02223 whole entry): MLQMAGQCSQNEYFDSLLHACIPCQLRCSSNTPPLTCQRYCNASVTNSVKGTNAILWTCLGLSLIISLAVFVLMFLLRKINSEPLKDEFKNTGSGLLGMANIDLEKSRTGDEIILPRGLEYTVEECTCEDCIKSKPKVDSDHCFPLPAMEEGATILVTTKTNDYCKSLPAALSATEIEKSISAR
Chain of mouse BCMA expressed on CHO GS cells (mouse) (O88472 whole entry): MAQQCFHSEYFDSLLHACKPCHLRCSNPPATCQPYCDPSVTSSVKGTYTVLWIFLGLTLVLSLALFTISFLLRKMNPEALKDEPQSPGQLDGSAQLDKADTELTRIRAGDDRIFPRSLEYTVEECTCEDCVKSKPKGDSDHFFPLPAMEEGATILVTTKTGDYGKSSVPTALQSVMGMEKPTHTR
Chain of cynomolgus monkey BCMA expressed on CHO GS cells (cynomolgus monkey) (chain, as listed by the source): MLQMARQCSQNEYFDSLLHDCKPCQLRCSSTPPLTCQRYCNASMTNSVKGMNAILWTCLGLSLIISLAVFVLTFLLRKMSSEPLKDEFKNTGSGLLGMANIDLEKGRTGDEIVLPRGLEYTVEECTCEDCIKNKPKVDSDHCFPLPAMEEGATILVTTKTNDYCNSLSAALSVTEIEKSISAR

In the case of “GSK PG antibody (BCMA antibody clone J6M0 of GSK, P329G human IgG1)”, the EC50 [1] is reported as 7.54 nM, the EC50 [2] is reported as 7.69 nM and the EC50 [3] is reported as 8.74 nM. It also gave an EC50 [4] of 5.97 nM, an EC50 [5] of 132 nM and an EC50 [6] of 12.9 nM. For the same substance, the EC50 [7] was 10 nM, the EC50 [8] was 5 nM and the EC50 [9] was 10.4 nM.
